Assays:
[1] = target: the molecule itself; assay: AUC; sedimentation equilibrium, 12,000 and 14,000 rpm, 20 mM sodium acetate pH 5, 150 mM NaCl, 3 mM KCl; dimer to monomers, limit calculated from detection of 10% monomer
[2] = target: the molecule itself; assay: AUC; sedimentation equilibrium, 12,000 and 14,000 rpm, 25 °C, 20 mM sodium phosphate pH 7.4, 150 mM NaCl, 3 mM KCl; monomer-dimer equilibrium model (SEDPHAT); dimer to monomers

B1: recombinant human β-gal (rhβ-gal) (enzyme)
chain: QRMFEIDYSRDSFLKDGQPFRYISGSIHYSRVPRFYWKDRLLKMKMAGLNAIQTYVPWNFHEPWPGQYQFSEDHDVEYFLRLAHELGLLVILRPGPYICAEWEMGGLPAWLLEKESILLRSSDPDYLAAVDKWLGVLLPKMKPLLYQNGGPVITVQVENEYGSYFACDFDYLRFLQKRFRHHLGDDVVLFTTDGAHKTFLKCGALQGLYTTVDFGTGSNITDAFLSQRKCEPKGPLINSEFYTGWLDHWGQPHSTIKTEAVASSLYDILARGASVNLYMFIGGTNFAYWNGANSPYAAQPTSYDYDAPLSEAGDLTEKYFALRNIIQKFEKVPEGPIPPSTPKFAYGKVTLEKLKTVGAALDILCPSGPIKSLYPLTFIQVKQHYGFVLYRTTLPQDCSNPAPLSSPLNGVHDRAYVAVDGIPQGVLERNNVITLNITGKAGATLDLLVENMGRVNYGAYINDFKGLVSNLTLSSNILTDWTIFPLDTEDAVRSHLGGWGHRDSGHHDEAWAHNSSNYTLPAFYMGNFSIPSGIPDLPQDTFIQFPGWTKGQVWINGFNLGRYWPARGPQLTLFVPQHILMTSAPNTITVLELEWAPCSSDDPELCAVTFVDRPVIGSSVTYDHPSKPVEKRLMPPPPQKNKDSWLDHV
modifications: N-linked glycans; about 9% of the total glycan composition is bisphosphorylated oligomannose (BPM7)
notes: human lysosomal β-galactosidase (GLB1), secreted from CHO cells as the precursor, nonlysosomal enzyme (not the lysosomally processed mature form); No tag is mentioned; PDB 3THC is another preparation, treated by limited proteolysis, with residues 648-677 not determined; also called β-galactosidase; lysosomal β-gal
Kd [1]: ≤ 2 nM
stoichiometry N [1]: 2
Kd [2]: 243 nM
